For the assay, the target named is purified pig brain plasma membrane Ca2+-ATPase (PMCA) (pig) (UniProt P23220).
Chain of UniProt P23220 (P23220 whole entry): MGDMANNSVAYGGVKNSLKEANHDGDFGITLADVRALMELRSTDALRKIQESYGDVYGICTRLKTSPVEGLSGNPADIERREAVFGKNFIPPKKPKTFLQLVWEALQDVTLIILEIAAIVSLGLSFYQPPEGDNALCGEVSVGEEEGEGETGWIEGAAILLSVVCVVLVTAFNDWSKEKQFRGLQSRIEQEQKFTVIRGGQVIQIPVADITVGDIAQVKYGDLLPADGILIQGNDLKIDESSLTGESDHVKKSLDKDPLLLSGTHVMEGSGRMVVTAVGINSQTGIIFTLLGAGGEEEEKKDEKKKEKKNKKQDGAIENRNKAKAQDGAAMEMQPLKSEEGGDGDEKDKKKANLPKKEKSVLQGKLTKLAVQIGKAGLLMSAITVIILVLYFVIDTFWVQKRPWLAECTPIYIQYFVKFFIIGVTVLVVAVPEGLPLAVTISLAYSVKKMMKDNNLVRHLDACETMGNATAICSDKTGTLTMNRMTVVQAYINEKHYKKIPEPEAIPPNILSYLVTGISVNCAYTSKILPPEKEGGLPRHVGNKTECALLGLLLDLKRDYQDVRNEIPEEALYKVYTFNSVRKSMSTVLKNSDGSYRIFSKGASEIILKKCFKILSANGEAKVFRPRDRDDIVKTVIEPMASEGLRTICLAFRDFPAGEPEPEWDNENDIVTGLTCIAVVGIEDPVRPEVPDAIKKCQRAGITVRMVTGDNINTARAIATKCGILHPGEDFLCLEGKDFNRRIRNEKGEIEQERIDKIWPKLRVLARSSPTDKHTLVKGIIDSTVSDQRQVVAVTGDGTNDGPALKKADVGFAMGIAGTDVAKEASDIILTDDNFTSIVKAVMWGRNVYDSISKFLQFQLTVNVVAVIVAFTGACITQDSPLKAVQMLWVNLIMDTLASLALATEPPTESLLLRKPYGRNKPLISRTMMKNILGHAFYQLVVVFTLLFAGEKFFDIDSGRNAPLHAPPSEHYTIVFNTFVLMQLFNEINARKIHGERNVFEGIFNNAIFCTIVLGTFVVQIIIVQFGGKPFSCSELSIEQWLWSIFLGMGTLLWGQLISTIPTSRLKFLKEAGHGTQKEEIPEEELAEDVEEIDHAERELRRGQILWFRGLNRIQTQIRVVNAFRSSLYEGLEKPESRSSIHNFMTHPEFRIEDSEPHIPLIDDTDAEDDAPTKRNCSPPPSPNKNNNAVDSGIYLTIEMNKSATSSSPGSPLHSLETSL

B1: Recombinant Human SRI (sorcin), soluble resistance-related calcium-binding protein (natural protein)
chain: MAYPGHPGAGGGYYPGGYGGAPGGPAFPGQTQDPLYGYFAAVAGQDGQIDADELQRCLTQSGIAGGYKPFNLETCRLMVSMLDRDMSGTMGFNEFKELWAVLNGWRQHFISFDTDRSGTVDPQELQKALTTMGFRLSPQAVNSIAKRYSTNGKITFDDYIACCVKLRALTDSFRRRDTAQQGVVNFPYDDFIQCVMSV
In the case of B1, the Ca2+-ATPase activity of purified pig brain PMCA reconstituted in PC, sorcin 12.5-50 nM in the assay medium, with Ca2+: fold activation stood at 1.8 fold and the Ca2+-ATPase activity of purified pig brain PMCA reconstituted in PC: EC50 of activation by sorcin (in the assay medium) is 0.0125 µM.

Values taken from publication PMC8200006.
